Laboratory results reported in PMC8216847.

Molecular target: SARS-HCoV-2 S2 extra-cellular domain (SARS-CoV-2)

CV3-25 (antibody) showed an IC50 of neutralisation of SARS-CoV-2 pseudovirus on HEK293T-hACE2 cells of 0.34 mg/L.
